These results are taken from patent EP4696714A1, “PREPARATION METHOD FOR NANOBODY TARGETING TISSUE FACTOR AND CONJUGATE AND USE THEREOF” (Fudan University, priority 2023, dated 2024).

What is called IC50 is the concentration that inhibits the measured activity by half. The Kd is the constant that tells how readily two partners part at equilibrium. Read a high Kd as lower affinity. By EC50 is commonly meant the concentration that produces a half-maximal response. Read a low EC50 as a more potent agent.

For assay [1] the following is noted: compared with MMDX and doxorubicin; cited from earlier work.
In assay [2] the test system is 18 human tumor cell lines. The note with it: average against 18 human tumor cell lines; cited from earlier work.
For assay [3], the system named is HCC1954 mammary pad xenograft. As to the kind of experiment: HCC1954 mammary pad xenograft experiment. It is filed as in vivo. The conditions noted are these: once a week, twice in total.
In assay [4] the target is T1, human TF extracellular domain protein (TF-ECD, Met 1-Glu 251) (human, UniProt P13726 33-251).
T1 construct: range 1-251; also called human TF-ECD; not shown: His tag (protein captured on an NTA sensor as 'FDYKSD-01-His')
The assay is described as follows: ForteBio OCTET R2 (called SPR), method of Example 2. (Biolayer interferometry detects binding as a change in optical thickness at a sensor tip.)

Assay [5] has as its system KRAS^G12D pancreatic cancer HPAF-II xenograft tumor. As to the kind of experiment: Pancreatic cancer HPAF-II xenograft model. It is filed as in vivo, Balb/c nude mice. The conditions noted are these: 3 mg/kg, single-dose, tail vein. On the procedure:
Pancreatic ductal adenocarcinoma (PDAC) HPAF-II cells in logarithmic growth phase were subcutaneously inoculated into the bank of 5-week-old female Balb/c nude mice (purchased from Shanghai Sippr-BK Laboratory Animal Co., Ltd.) at a density of 2.5×10^6 cells per 200 µL serum-free medium. When tumor volume reached 100-200 mm^3, animals were randomly grouped, 8 tumors per group. The preferred TF-NDCs such as 4-A02-MMAE, 4-A02-ABD-MMAE were administered via tail vein injection at 3 mg/kg or 1 mg/kg on the day of grouping, with hIgG1-MMAE as the negative control. Only one dose was administered throughout the experiment. Tumor volume and mouse body weight were measured twice a week to plot growth curves. Tumor volume (V) was calculated using the formula: V = 1/2 × a × b^2, where a and b represent tumor length and width, respectively.

The target in assay [6] is T2, TF on the surface of tumor cells (MDA-MB-231, HPAF-II, HCC1806, BxPC3, HCC44, PC9, H1975 and other … (UniProt P13726 33-295, limits assumed)).
T2 construct: whole, on cells; the cell lines are human tumour lines; also called TF on cell surface; tumor cell surface TF
As to the kind of experiment: flow cytometry on MDA-MB-231 cells, PE-labeled secondary antibody.

The target of assay [7] is T1, human TF extracellular domain protein …. As to the kind of experiment: ForteBio OCTET R2; His-tagged antigen on NTA sensor, nanobody-Fc 25-1.56 nM in solution, 25°C.

`COc1cccc2c1C(=O)c1c(O)c3c(c(O)c1C2=O)C[C@@](O)(C(=O)CO)C[C@@H]3O[C@H]1C[C@H]2[C@H](O[C@@H]3[C@@H](OC)OCCN32)[C@H](C)O1` [PNU-159682]: the increase in activity in assay [1] was 3000 folds.

As to `CN[C@H](C(=O)N[C@H](C(=O)N(C)[C@H](/C=C(\C)C(=O)O)C(C)C)C(C)(C)C)C(C)(C)c1ccccc1` [Taltobulin], the IC50 in assay [2] was 2.5 nM.

B1: 4-A02-DXd (conjugate)
chain: QVQLVESGGGLVQPGGSLSLSCTASETISSTYIMGWHRRSPGKERELVAVISGDGVTHYADFVKGRFVISRDNAKNAVYLKMNFLTPEDTAVYYCYAAGRWNHWGQGTQVTVSSEPKSSDKTHTCPPCPAPEFEGGPSVFLFPPKPKDTLMISRTPEVTCVVVDVSHEDPEVKFNWYVDGVEVHNAKTKPREEQYNSTYRVVSVLTVLHQDWLNGKEYKCKVSNKALPASIEKTISKAKGQPREPQVYTLPPSRDELTKNQVSLTCLVKGFYPSDIAVEWESNGQPENNYKTTPPVLDSDGSFFLYSKLTVDKSRWQQGNVFSCSVMHEALHNHYTQKSLSLSPGK
B1: the “inhibition of tumor growth” value in assay [3] (10 mg/kg intravenous) was “significant inhibition of tumor growth and caused tumor regression”.

B2: original nanobody 4A02 (parental antibody 4A02, as comparator in Examples 11 and 12) (Fc fusion)
VHH: QVQLVESGGGLVQPGGSLSLSCTASETISSTYIMGWHRRSPGKERELVAVISGDGVTHYADFVKGRFVISRDNAKNAVYLKMNFLTPEDTAVYYCYAAGRWNHWGQGTQVTVSS
notes: not shown: Fc segment of the comparator
In turn, B2 registered a Kd in assay [4] of 0.29 nM.

B3: 4-A02-ABD-MMAE: NDC of 4-A02-ABD (monomer) coupled to mc-vc-MMAE, DAR1 (conjugate)
chain: QVQLVESGGGLVQPGGSLSLSCTASETISSTYIMGWHRRSPGKERELVAVISGDGVTHYADFVKGRFVISRDNAKNAVYLKMNFLTPEDTAVYYCYAAGRWNHWGQGTQVTVSSGGGGSGGGGSGGGGSQHDEAVDANSLAEAKVLANRELDKYGVSDYYKNLINNAKTVEGVKALIDEILAALPAAACAAAHHHHHH
As for B3, the “inhibition of tumor growth” value in assay [3] (3 mg/kg intravenous) was “significant inhibition of tumor growth and caused tumor regression”. Besides, the “anti-tumor effect (tumor volume)” value in assay [5] was “complete tumor regression”.

B4: F1-A01-FC1 (chimeric nanobody: F1-A01 VHH fused with human Fc mutant fragment FC1) (Fc fusion)
chain: EVQLVESGGGLVQAGGSLRLSCAASGRAFSAYAMGWFRQAPGKEREFVAAISWSGGSTYYADSVRGRFTISRDNTKNTVYLQMNSLKPEDTAVYYCNADSLLSLLDGSRGGPGTDSGSWGQGTQVTVSSEPKSSDKTHTCPPCPAPEFEGGPSVFLFPPKPKDTLMISRTPEVTCVVVDVSHEDPEVKFNWYVDGVEVHNAKTKPREEQYNSTYRVVSVLTVLHQDWLNGKEYKCKVSNKALPASIEKTISKAKGQPREPQVYTLPPSRDELTKNQVSLTCLVKGFYPSDIAVEWESNGQPENNYKTTPPVLDSDGSFFLYSKLTVDKSRWQQGNVFSCSVMHEALHNHYTQKSLSLSPGK
notes: it is built from the VHH and FC1 as in 4-A02-FC1
Consider B4, for which the concentration giving a half-maximal response (EC50) in assay [6] amounted to 0.75 mg/L. The molecule also displayed a Kd in assay [7] of 4.37 nM.

B5: 5-H3-FC1 (chimeric nanobody: 5-H3 VHH fused with human Fc mutant fragment FC1) (Fc fusion)
chain: QVQLVESGGGLVQPGGSLRLSCVASGFTLANYAIGFYRRAPGKGREGVSCISRSDGDTYHVDSVKGRFTVSRDNAKNTAYLQMNSLVPEDTGVYYCRATEWCGVQDPHGYWGQGTQVTVSSEPKSSDKTHTCPPCPAPEFEGGPSVFLFPPKPKDTLMISRTPEVTCVVVDVSHEDPEVKFNWYVDGVEVHNAKTKPREEQYNSTYRVVSVLTVLHQDWLNGKEYKCKVSNKALPASIEKTISKAKGQPREPQVYTLPPSRDELTKNQVSLTCLVKGFYPSDIAVEWESNGQPENNYKTTPPVLDSDGSFFLYSKLTVDKSRWQQGNVFSCSVMHEALHNHYTQKSLSLSPGK
notes: built from the VHH and FC1
In assay [6], B5 gave an EC50 of 0.25 mg/L. Moreover, the Kd in assay [7] came to 0.45 nM.
